# Reference: patent US20220411483A1 (Chugai, published 2022)
# T1: FcγRIIb extracellular domain with C-terminal His tag (human, UniProt P31994 43-217)
# T1 construct: extracellular domain; also called FcgRIIb; not shown: His tag at the C terminus
# T1 sequence (looked up): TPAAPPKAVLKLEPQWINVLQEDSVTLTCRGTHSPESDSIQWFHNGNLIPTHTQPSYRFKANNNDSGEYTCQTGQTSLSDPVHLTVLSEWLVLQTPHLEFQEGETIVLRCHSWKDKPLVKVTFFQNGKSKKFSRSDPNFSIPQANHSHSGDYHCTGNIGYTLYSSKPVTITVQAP
# T2: FcγRIIa R type extracellular domain with C-terminal His tag (human, UniProt P12318 34-217)
# T2 construct: extracellular domain; also called FcgRIIaR; not shown: His tag at the C terminus
# T2 sequence (looked up): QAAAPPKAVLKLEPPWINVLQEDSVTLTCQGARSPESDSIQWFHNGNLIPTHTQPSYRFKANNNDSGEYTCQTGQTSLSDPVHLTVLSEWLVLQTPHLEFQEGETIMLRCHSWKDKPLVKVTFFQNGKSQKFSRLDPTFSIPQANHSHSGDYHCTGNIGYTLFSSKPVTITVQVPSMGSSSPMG
# Columns and labels:
# Assay in all cases: SPR, antibody captured, FcgR analyte
# [1] = biological target: T3, FcγRIa extracellular domain with C-terminal His tag (human, UniProt P12314 16-292)
# T3 construct: also called FcgRIa; CD64; not shown: His tag at the C terminus
# [2] = biological target: T1, FcγRIIb extracellular domain with …
# [3] = biological target: T2, FcγRIIa R type extracellular domain …
# T3 sequence (P12314 16-292): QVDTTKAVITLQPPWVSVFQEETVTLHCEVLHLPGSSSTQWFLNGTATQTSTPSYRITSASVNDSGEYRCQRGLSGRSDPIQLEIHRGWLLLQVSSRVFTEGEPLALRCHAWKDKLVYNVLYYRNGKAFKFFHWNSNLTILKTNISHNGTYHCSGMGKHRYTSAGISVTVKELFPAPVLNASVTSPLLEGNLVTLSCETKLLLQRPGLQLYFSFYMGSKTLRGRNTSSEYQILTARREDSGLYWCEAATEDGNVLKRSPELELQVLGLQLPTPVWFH
Kd [1] [nM],Kd [2] [nM],Kd [3] [nM],Binder
7,,,"IL6R-BP249/IL6R-L (antibody, human IgG1, kappa, name in EU numbering, human IgG1) heavy: QVQLQESGPGLVKPSETLSLTCAVSGHSISHDHAWSWVRQPPGEGLEWIGFISYSGITNYNPSLQGRVTISRDNSKNTLYLQMNSLRAEDTAVYYCARSLARTTAMDYWGEGTLVTVSSASTKGPSVFPLAPSSKSTSGGTAALGCLVKDYFPEPVTVSWNSGALTSGVHTFPAVLQSSGLYSLSSVVTVPSSSLGTQTYICNVNHKPSNTKVDKKVEPKSCDKTHTCPPCPAPDYLGDDSVFLFPPKPKDTLMISRTPEVTCVVVDVSDEDGEVKFNWYVDGVEVHNAKTKPREEQDNSTYRVVSVLTVLHQDWLNGKEYKCKVSNKALPRPIEKTISKAKGQPREPQVYTLPPSRDELTKNQVSLTCLVKGFYPSDIAVEWESNGQPENNYKTTPPVLDSDGSFFLYSKLTVDKSRWQQGNVFSCSVMHEALHNHYTQESLSLSP light: not shown"
4.5,92,,"IL6R-BP268/IL6R-L (antibody, human IgG1, kappa, name in EU numbering, human IgG1) heavy: QVQLQESGPGLVKPSETLSLTCAVSGHSISHDHAWSWVRQPPGEGLEWIGFISYSGITNYNPSLQGRVTISRDNSKNTLYLQMNSLRAEDTAVYYCARSLARTTAMDYWGEGTLVTVSSASTKGPSVFPLAPSSKSTSGGTAALGCLVKDYFPEPVTVSWNSGALTSGVHTFPAVLQSSGLYSLSSVVTVPSSSLGTQTYICNVNHKPSNTKVDKKVEPKSCDKTHTCPPCPAPDLLGDDSVFLFPPKPKDTLMISRTPEVTCVVVDVSEEDGEVKFNWYVDGVEVHNAKTKPREEQDNSTYRVVSVLTVLHQDWLNGKEYKCKVSNKALPAPIEKTISKAKGQPREPQVYTLPPSRDELTKNQVSLTCLVKGFYPSDIAVEWESNGQPENNYKTTPPVLDSDGSFFLYSKLTVDKSRWQQGNVFSCSVMHEALHNHYTQESLSLSP light: not shown"
2.1,25,,"IL6R-BP501/IL6R-L (antibody, human IgG1, kappa, name in EU numbering, human IgG1) heavy: QVQLQESGPGLVKPSETLSLTCAVSGHSISHDHAWSWVRQPPGEGLEWIGFISYSGITNYNPSLQGRVTISRDNSKNTLYLQMNSLRAEDTAVYYCARSLARTTAMDYWGEGTLVTVSSASTKGPSVFPLAPSSKSTSGGTAALGCLVKDYFPEPVTVSWNSGALTSGVHTFPAVLQSSGLYSLSSVVTVPSSSLGTQTYICNVNHKPSNTKVDKKVEPKSCDKTHTCPPCPAPELLGDDSVFLFPPKPKDTLMISRTPEVTCVVIDVAEEDGEVKFNWYVDGVEVHNAKTKPREEQYNSTYRVVSVLTVLHQDWLNGKEYKCKVSNKALPAPIEKTISKAKGQPREPQVYTLPPSRDELTKNQVSLTCLVKGFYPSDIAVEWESNGQPENNYKTTPPVLDSDGSFFLYSKLTVDKSRWQQGNVFSCSVMHEALHNHYTQESLSLSP light: not shown"
7.4,,350,"IL6R-BP264/IL6R-L (antibody, human IgG1, kappa, name in EU numbering, human IgG1) heavy: QVQLQESGPGLVKPSETLSLTCAVSGHSISHDHAWSWVRQPPGEGLEWIGFISYSGITNYNPSLQGRVTISRDNSKNTLYLQMNSLRAEDTAVYYCARSLARTTAMDYWGEGTLVTVSSASTKGPSVFPLAPSSKSTSGGTAALGCLVKDYFPEPVTVSWNSGALTSGVHTFPAVLQSSGLYSLSSVVTVPSSSLGTQTYICNVNHKPSNTKVDKKVEPKSCDKTHTCPPCPAPDLLGDDSVFLFPPKPKDTLMISRTPEVTCVVVDVSEEDGEVKFNWYVDGVEVHNAKTKPREEQDNSTYRVVSVLTVLHQDWLNGKEYKCKVSNKALPRPIEKTISKAKGQPREPQVYTLPPSRDELTKNQVSLTCLVKGFYPSDIAVEWESNGQPENNYKTTPPVLDSDGSFFLYSKLTVDKSRWQQGNVFSCSVMHEALHNHYTQESLSLSP light: not shown"
1,,,"IL6R-BP426/IL6R-L (antibody, human IgG1, kappa, name in EU numbering, human IgG1) heavy: QVQLQESGPGLVKPSETLSLTCAVSGHSISHDHAWSWVRQPPGEGLEWIGFISYSGITNYNPSLQGRVTISRDNSKNTLYLQMNSLRAEDTAVYYCARSLARTTAMDYWGEGTLVTVSSASTKGPSVFPLAPSSKSTSGGTAALGCLVKDYFPEPVTVSWNSGALTSGVHTFPAVLQSSGLYSLSSVVTVPSSSLGTQTYICNVNHKPSNTKVDKKVEPKSCDKTHTCPPCPAPDLLGDDSVFLFPPKPKDTLMISRTPEVTCVVVDVAEDDGEVKFNWYVDGVEVHNAKTKPREEQYNSTYRVVSVLTVLHQDWLNGKEYKCKVSNKALPRPIEKTISKAKGQPREPQVYTLPPSRDELTKNQVSLTCLVKGFYPSDIAVEWESNGQPENNYKTTPPVLDSDGSFFLYSKLTVDKSRWQQGNVFSCSVMHEALHNHYTQESLSLSP light: not shown"
0.82,21,,"IL6R-BP493/IL6R-L (antibody, human IgG1, kappa, name in EU numbering, human IgG1) heavy: QVQLQESGPGLVKPSETLSLTCAVSGHSISHDHAWSWVRQPPGEGLEWIGFISYSGITNYNPSLQGRVTISRDNSKNTLYLQMNSLRAEDTAVYYCARSLARTTAMDYWGEGTLVTVSSASTKGPSVFPLAPSSKSTSGGTAALGCLVKDYFPEPVTVSWNSGALTSGVHTFPAVLQSSGLYSLSSVVTVPSSSLGTQTYICNVNHKPSNTKVDKKVEPKSCDKTHTCPPCPAPELLGGDSVFLFPPKPKDTLMISRTPEVTCVVIDVAEEDGEVKFNWYVDGVEVHNAKTKPREEQDNSTYRVVSVLTVLHQDWLNGKEYKCKVSNKALPAPIEKTISKAKGQPREPQVYTLPPSRDELTKNQVSLTCLVKGFYPSDIAVEWESNGQPENNYKTTPPVLDSDGSFFLYSKLTVDKSRWQQGNVFSCSVMHEALHNHYTQESLSLSP light: not shown"
,200,6300,"IL6R-BP480/IL6R-L (antibody, human IgG1, kappa, name in EU numbering, human IgG1) heavy: QVQLQESGPGLVKPSETLSLTCAVSGHSISHDHAWSWVRQPPGEGLEWIGFISYSGITNYNPSLQGRVTISRDNSKNTLYLQMNSLRAEDTAVYYCARSLARTTAMDYWGEGTLVTVSSASTKGPSVFPLAPSSKSTSGGTAALGCLVKDYFPEPVTVSWNSGALTSGVHTFPAVLQSSGLYSLSSVVTVPSSSLGTQTYICNVNHKPSNTKVDKKVEPKSCDKTHTCPPCPAPDLLGDDSVFLFPPKPKDTLMISRTPEVTCVVVDLSEDDGEVKFNWYVDGVEVHNAKTKPREEQYNSTYRVVSVLTVLHQDWLNGKEYKCKVSNKALPAPIEKTISKAKGQPREPQVYTLPPSRDELTKNQVSLTCLVKGFYPSDIAVEWESNGQPENNYKTTPPVLDSDGSFFLYSKLTVDKSRWQQGNVFSCSVMHEALHNHYTQESLSLSP light: not shown"
,20,850,"IL6R-BP557/IL6R-L (antibody, human IgG1, kappa, name in EU numbering, human IgG1) heavy: QVQLQESGPGLVKPSETLSLTCAVSGHSISHDHAWSWVRQPPGEGLEWIGFISYSGITNYNPSLQGRVTISRDNSKNTLYLQMNSLRAEDTAVYYCARSLARTTAMDYWGEGTLVTVSSASTKGPSVFPLAPSSKSTSGGTAALGCLVKDYFPEPVTVSWNSGALTSGVHTFPAVLQSSGLYSLSSVVTVPSSSLGTQTYICNVNHKPSNTKVDKKVEPKSCDKTHTCPPCPAPELLGDDSVFLFPPKPKDTLMISRTPEVTCVVVDVGDEDGEVKFNWYVDGVEVHNAKTKPREEQDNSTYRVVSVLTVLHQDWLNGKEYKCKVSNKALPRPIEKTISKAKGQPREPQVYTLPPSRDELTKNQVSLTCLVKGFYPSDIAVEWESNGQPENNYKTTPPVLDSDGSFFLYSKLTVDKSRWQQGNVFSCSVMHEALHNHYTQESLSLSP light: not shown"
8.3,9.7,,"IL6R-BP495/IL6R-L (antibody, human IgG1, kappa, name in EU numbering, human IgG1) heavy: QVQLQESGPGLVKPSETLSLTCAVSGHSISHDHAWSWVRQPPGEGLEWIGFISYSGITNYNPSLQGRVTISRDNSKNTLYLQMNSLRAEDTAVYYCARSLARTTAMDYWGEGTLVTVSSASTKGPSVFPLAPSSKSTSGGTAALGCLVKDYFPEPVTVSWNSGALTSGVHTFPAVLQSSGLYSLSSVVTVPSSSLGTQTYICNVNHKPSNTKVDKKVEPKSCDKTHTCPPCPAPELLGDDSVFLFPPKPKDTLMISRTPEVTCVVVDVGEEDGEVKFNWYVDGVEVHNAKTKPREEQDNSTYRVVSVLTVLHQDWLNGKEYKCKVSNKALPRPIEKTISKAKGQPREPQVYTLPPSRDELTKNQVSLTCLVKGFYPSDIAVEWESNGQPENNYKTTPPVLDSDGSFFLYSKLTVDKSRWQQGNVFSCSVMHEALHNHYTQESLSLSP light: not shown"
1,,,"IL6R-BP435/IL6R-L (antibody, human IgG1, kappa, name in EU numbering, human IgG1) heavy: QVQLQESGPGLVKPSETLSLTCAVSGHSISHDHAWSWVRQPPGEGLEWIGFISYSGITNYNPSLQGRVTISRDNSKNTLYLQMNSLRAEDTAVYYCARSLARTTAMDYWGEGTLVTVSSASTKGPSVFPLAPSSKSTSGGTAALGCLVKDYFPEPVTVSWNSGALTSGVHTFPAVLQSSGLYSLSSVVTVPSSSLGTQTYICNVNHKPSNTKVDKKVEPKSCDKTHTCPPCPAPDLLGDDSVFLFPPKPKDTLMISRTPEVTCVVVDVSDEDGEVKFNWYVDGVEVHNAKTKPREEQDNSTYRVVSVLTVLHQDWLNGKEYKCKVSNAALPRPTEKTISKAKGQPREPQVYTLPPSRDELTKNQVSLTCLVKGFYPSDIAVEWESNGQPENNYKTTPPVLDSDGSFFLYSKLTVDKSRWQQGNVFSCSVMHEALHNHYTQESLSLSP light: not shown"
2,2.6,80,"IL6R-BP445/IL6R-L (antibody, human IgG1, kappa, name in EU numbering, human IgG1) heavy: QVQLQESGPGLVKPSETLSLTCAVSGHSISHDHAWSWVRQPPGEGLEWIGFISYSGITNYNPSLQGRVTISRDNSKNTLYLQMNSLRAEDTAVYYCARSLARTTAMDYWGEGTLVTVSSASTKGPSVFPLAPSSKSTSGGTAALGCLVKDYFPEPVTVSWNSGALTSGVHTFPAVLQSSGLYSLSSVVTVPSSSLGTQTYICNVNHKPSNTKVDKKVEPKSCDKTHTCPPCPAPDLLGDDSVFLFPPKPKDTLMISRTPEVTCVVIDVAEEDGEVKFNWYVDGVEVHNAKTKPREEQYNSTYRVVSVLTVLHQDWLNGKEYKCKVSNKALPRPIEKTISKAKGQPREPQVYTLPPSRDELTKNQVSLTCLVKGFYPSDIAVEWESNGQPENNYKTTPPVLDSDGSFFLYSKLTVDKSRWQQGNVFSCSVMHEALHNHYTQESLSLSP light: not shown"
